Test results as given in publication PMC11376072, “Moderately thermostable GH1 β-glucosidases from hyperacidophilic archaeon Cuniculiplasma divulgatum S5” (FEMS Microbiology Ecology, 2024).

B1: CIB13, GH1 β-glucosidase from Cuniculiplasma divulgatum S5 (enzyme)
chain: MLPKGFRFGFSLAGFQSEMGLSGKDENSDWYQWCHDEYNIKNGVVSGDFPENGAAYWDLFRKDHETAVNIGMNSTRIGIEWSRIFPTSTEGVKVRIDRDGDNITGITIEKSDLESLKKICNMDAVKKYREIFMDLKDRNFYMILNLFHWSMPLWINDPRKREISKGNNLGNFFSEKSVIEFAKFAAFAAYSFDDLVDVYSTMNEPNVVFSGGNNNSEKKYYSKMKFFIEAHARAYDCIRTISRKRIGVIYANEHIESLENSDPELVEEVTWRNRYSFIDSIKSGKTFSTKNMEENSRWPEKNVFRKDLENRLDWIGVNYYSRYVVRRIESGFEAIDGYGFLCSGYEKSKDGRVVSEMGWEIYPQGLYDVLMGYQERYSLPMMVTENGIADDMDRYRPGFLISHMKMIERAIKDGAGVEGYLHWSLTDNFEWSSGFSKKFGLLRVDYRTKKRSIRPSALVFREISKKSGVPEELEWLGERFY
notes: CIB13, GH1 β-glucosidase of Cuniculiplasma divulgatum S5 (JCM 30642), GenBank SIM79973.1, CSP5_1651; predicted monomeric mass 56.1 kDa; Cloned into p15TvL with an N-terminal 6His-tag; also called CSP5_1651; source: E. coli BL21(DE3) Lobstr, purified (Ni-NTA)
B2: CIB12, GH1 β-glucosidase from Cuniculiplasma divulgatum S5 (enzyme)
chain: MFPKNFKFGFSEAGFQFEMGVSDIDTNTDWYKWSHDSENIKNHIVSGDRPEEGVGYWDLYPKDHDLAEYIGMNAARIGIEWSRIFPVSTERVTVEVIEENGDILEIKITEKTIKELDLLSDKNAMQHYTNIFNDIKKRGWFLVINLFHWSLPLWINDPSNRNSEKDNALGNCMNRSSVIEFVKYAAYISYYFGSIADRFATMNEPNEVFKTCSEDKRVESYHIRMKWFVEAHARSYDAMKQFTNRQIGVIYANGDVQSFENKDPKLKEEVEYEQRYSFFDALIHGDVHWYVGACRKTNHVHGKSIRPDLSNRIDWIGVNYYSRNVVKRKEDGYENVRGLGYDTGWVSYEKSLDGRSVSETGWEIYPEGIYNIVMSYHKRYELPMMITENGMADDNDRFRPRYLVSHLKNLERAINDGAKVDGYLHWALTDNFEWGSGFSKKFGLIKVDYKTKKRYLRPSALIMKEITKHNGIPEELEWLGEDKF
notes: CIB12, GH1 β-glucosidase of Cuniculiplasma divulgatum S5 (JCM 30642), GenBank SIM59545.1, locus tag CSP5_0942; predicted monomeric mass 56.8 kDa; Cloned into p15TvL with an N-terminal 6His-tag; also called CSP5_0942; source: E. coli BL21(DE3) Lobstr, purified (Ni-NTA)

Legend:
purified protein = substrate: O=[N+]([O-])c1ccc(O[C@@H]2O[C@H](CO)[C@@H](O)[C@H](O)[C@H]2O)cc1; test: purified protein; details: 50 mM MES pH 5.0, 30°C, 30 min, 0-10 mM substrate
[1] = target: the molecule itself; test: SEC; size-exclusion chromatography of the purified protein; conditions not given

Protein	Km (purified protein) [µM]	Vmax (purified protein) [µmol/min/mg]	kcat (purified protein) [s⁻¹]	stoichiometry N [1]
B1	900 ± 100	0.93	0.87	2
B2	500 ± 100	0.61	0.57	2
